44 molecules from patent US20220387487A1, “COMPOSITIONS AND METHODS FOR TREATMENT OF CANCER” (Aleta Biotherapeutics Inc., priority 2019, published 2022) can be followed below.

Substitutions are numbered along the chain they refer to. Numbers in names are those of the source.

Sequences and labels used below:
B1: W264A: CD19 variant (protein)
chain: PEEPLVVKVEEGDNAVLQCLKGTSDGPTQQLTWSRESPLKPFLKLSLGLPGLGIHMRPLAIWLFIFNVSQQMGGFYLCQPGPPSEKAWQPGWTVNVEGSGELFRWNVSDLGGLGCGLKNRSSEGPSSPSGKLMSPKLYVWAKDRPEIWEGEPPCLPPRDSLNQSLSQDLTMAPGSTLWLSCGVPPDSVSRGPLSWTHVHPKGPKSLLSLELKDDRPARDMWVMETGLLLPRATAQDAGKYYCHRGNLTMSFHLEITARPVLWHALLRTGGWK
B2: W264D: CD19 variant (protein)
chain: B1 chain with A264D
B3: W262K: CD19 variant (protein)
chain: B1 chain with W262K, A264W
B4: K212A: CD19 variant (protein)
chain: B1 chain with K212A, A264W
B5: G269L: CD19 variant (protein)
chain: B1 chain with A264W, G269L
B6: W264N: CD19 variant (protein)
chain: B1 chain with A264N
B7: A257R: CD19 variant (protein)
chain: B1 chain with A257R, A264W
B8: F66R: CD19 variant (protein)
chain: B1 chain with F66R, A264W
B9: W62E: CD19 variant (protein)
chain: B1 chain with W62E, A264W
B10: V16W: CD19 variant (protein)
chain: B1 chain with V16W, A264W
B11: L261K: CD19 variant (protein)
chain: B1 chain with L261K, A264W
B12: A257K: CD19 variant (protein)
chain: B1 chain with A257K, A264W
B13: F64G: CD19 variant (protein)
chain: B1 chain with F64G, A264W
B14: W262D: CD19 variant (protein)
chain: B1 chain with W262D, A264W
B15: R57G: CD19 variant (protein)
chain: B1 chain with R57G, A264W
B16: V260S: CD19 variant (protein)
chain: B1 chain with V260S, A264W
B17: F64V: CD19 variant (protein)
chain: B1 chain with F64V, A264W
B18: L20G: CD19 variant (protein)
chain: B1 chain with L20G, A264W
B19: W62W/F64S/F66S: CD19 variant (protein)
chain: B1 chain with F64S, F66S, A264W
B20: W62E/F64E/F66V: CD19 variant (protein)
chain: B1 chain with W62E, F64E, F66V, A264W
B21: W62T/F64V/F66F: CD19 variant (protein)
chain: B1 chain with W62T, F64V, A264W
B22: W62Y/F64S/F66R: CD19 variant (protein)
chain: B1 chain with W62Y, F64S, F66R, A264W
B23: W62D/F64L/F66P: CD19 variant (protein)
chain: B1 chain with W62D, F64L, F66P, A264W
B24: W62E/F64C/F66S: CD19 variant (protein)
chain: B1 chain with W62E, F64C, F66S, A264W
B25: W62E/F64W/F66R: CD19 variant (protein)
chain: B1 chain with W62E, F64W, F66R, A264W
B26: E224G/G226E/L228I: CD19 variant (protein)
chain: B1 chain with E224G, G226E, L228I, A264W
B27: E224E/G226E/L228V: CD19 variant (protein)
chain: B1 chain with G226E, L228V, A264W
B28: W62E/F64V/F66V: CD19 variant (protein)
chain: B1 chain with W62E, F64V, F66V, A264W
B29: W62W/F64V/F66A: CD19 variant (protein)
chain: B1 chain with F64V, F66A, A264W
B30: W62S/F64R/F66S: CD19 variant (protein)
chain: B1 chain with W62S, F64R, F66S, A264W
B31: W62T/F64V/F66P: CD19 variant (protein)
chain: B1 chain with W62T, F64V, F66P, A264W
B32: W62R/F64V/F66R: CD19 variant (protein)
chain: B1 chain with W62R, F64V, F66R, A264W
B33: W62E/F64R/F66R: CD19 variant (protein)
chain: B1 chain with W62E, F64R, F66R, A264W
B34: W62R/F64A/F66F: CD19 variant (protein)
chain: B1 chain with W62R, F64A, A264W
B35: L59N/I61V/L63L: CD19 variant (protein)
chain: B1 chain with L59N, I61V, A264W
B36: W62D/F64V/F66M: CD19 variant (protein)
chain: B1 chain with W62D, F64V, F66M, A264W
B37: W62T/F64R/F66Q: CD19 variant (protein)
chain: B1 chain with W62T, F64R, F66Q, A264W
B38: W62E/F64R/F66P: CD19 variant (protein)
chain: B1 chain with W62E, F64R, F66P, A264W
B39: E224G/G226S/L228M: CD19 variant (protein)
chain: B1 chain with E224G, G226S, L228M, A264W
B40: W62A/F64R/F66L: CD19 variant (protein)
chain: B1 chain with W62A, F64R, F66L, A264W
B41: E224G/G226D/L228V: CD19 variant (protein)
chain: B1 chain with E224G, G226D, L228V, A264W
B42: W62D/F64V/F66R: CD19 variant (protein)
chain: B1 chain with W62D, F64V, F66R, A264W
B43: E224D/G226V/L228V: CD19 variant (protein)
chain: B1 chain with E224D, G226V, L228V, A264W
B44: E224G/G226R/L228F: CD19 variant (protein)
chain: B1 chain with E224G, G226R, L228F, A264W

Sequence of FMC63 (as listed by the source): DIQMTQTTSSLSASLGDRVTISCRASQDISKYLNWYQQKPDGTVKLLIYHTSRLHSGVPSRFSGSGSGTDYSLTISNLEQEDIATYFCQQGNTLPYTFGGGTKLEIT
Sequence of FMC63 (as listed by the source): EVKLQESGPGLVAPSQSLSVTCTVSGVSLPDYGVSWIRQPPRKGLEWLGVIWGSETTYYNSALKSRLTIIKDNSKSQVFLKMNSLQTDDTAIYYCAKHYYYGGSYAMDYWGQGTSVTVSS

One test has as its system FMC63. The experiment in a line: CD19 variant binding to anti-CD19 antibody FMC63 (score). The settings on record: Table 1A, CD19 single mutants (positions of SEQ ID NO:2).
As for B1, the “FMC63 Binding Score” value was 6.3 ± .5.
On the same count and under the same terms, as for B2, the figure is 6.2 ± .6; as for B3, 8.2 ± .7.
Still for that read-out and setting: as for B4, the figure is 6.1 ± .6.
As for B5, the “FMC63 Binding Score” value was 6.1 ± .4.
On the same count and under the same terms, in the case of B6 it was 9. ± 1.3; in that of B7, 6.1 ± .5.
B8: the “FMC63 Binding Score” value is reported as 6. ± .3.
Consider B9, for which the “FMC63 Binding Score” value is on record as 6.4 ± .7.
The same measure, in the same setting: in the case of B10 it was 6.7 ± 1; in that of B11, 6.2 ± .6; in that of B12, 6.1 ± .5.
The same measure, in the same setting: in the case of B13 it was 6. ± .2.
On the same count and under the same terms, as for B14, the figure is 8.3 ± .8.
Consider B15, for which the “FMC63 Binding Score” value is reported as 5.7 ± .2.
Still for that read-out and setting: in the case of B16 it was 5.8 ± .3; in that of B17, 6. ± .4.
On the same count and under the same terms, in the case of B18 it was 5.7 ± .2.

The same test, now with this note: Table 1B, CD19 triple mutants.
With B19, the “FMC63 Binding Score” value was 14. ± 3.2.
Consider B20, for which the “FMC63 Binding Score” value was found to be 16.2 ± 5.5.
With B21, the “FMC63 Binding Score” value is recorded as 13.6 ± 3.2.
Regarding B22, the “FMC63 Binding Score” value is on record as 13.7 ± 3.2.
The same measure, in the same setting: as for B23, the figure is 16.3 ± 5.5.
Regarding B24, the “FMC63 Binding Score” value is given as 12.6 ± 2.3.
The same measure, in the same setting: as for B25, the figure is 14.2 ± 3.2.
For the molecule B26, the “FMC63 Binding Score” value is on record as 14.3 ± 3.4.
For B27, the “FMC63 Binding Score” value worked out at 11.6 ± 1.2.
Still for that read-out and setting: in the case of B28 it was 13.4 ± 2.5; in that of B29, 13.7 ± 3.2.
As for B30, the “FMC63 Binding Score” value was determined as 13.2 ± 2.1.
For the molecule B31, the “FMC63 Binding Score” value is given as 16.6 ± 5.5.
With B32, the “FMC63 Binding Score” value worked out at 12.3 ± 1.6.
The same measure, in the same setting: as for B33, the figure is 12.4 ± 2.1; as for B34, 15.9 ± 5.6.
In the case of B35, the “FMC63 Binding Score” value worked out at 13.9 ± 3.2.
The same measure, in the same setting: in the case of B36 it was 16. ± 5.6.
Consider B37, for which the “FMC63 Binding Score” value is recorded as 16.3 ± 5.5.
For the molecule B38, the “FMC63 Binding Score” value turned out to be 16.5 ± 5.5.
The same measure, in the same setting: in the case of B39 it was 13.8 ± 3.4; in that of B40, 13.1 ± 2.3; in that of B41, 12. ± 1.2.
The same measure, in the same setting: in the case of B42 it was 12.6 ± 2.3.
Same read-out and setting: as for B43, the figure is 13.8 ± 3.4; as for B44, 12.8 ± 1.7.
